Results reported in article PMC10872586 (Cell reports, 2023).

Tests used:
mini-HA #4900 = mini-HA #4900 (Designed influenza HA stem #4900, …, stabilised); experiment: BLI; conditions: both partners purified
[1] = molecular target: HA protein from H1N1 A/Solomon Islands/3/2006 (Influenza A virus (A/Solomon …, UniProt A7Y8I1, strain)); experiment: BLI; conditions: both partners purified

Binder | Kd (mini-HA #4900) | Kd [1]
CR9114 with germline heavy chain, Fab (Fab, V domains shown, also called CR9114 gHC; WT; source: Expi293F, co-transfected, purified (CaptureSelect CH1-XL)) VH: QVQLVQSGAEVKKPGSSVKVSCKASGGTFSSYAISWVRQAPGQGLEWMGGIIPIFGTANYAQKFQGRVTITADKSTSTAYMELSSLRSEDTAVYYCARHGNYYYYYGMDVWGQGTTVTVSS VL: SYVLTQPPAVSGTPGQRVTISCSGSDSNIGRRSVNWYQQFPGTAPKLLIYSNDQRPSVVPDRFSGSKSGTSASLAISGLQSEDEAEYYCAAWDDSLKGAVFGGGTQLTVL | 6.2 µM | –
CR9114 gHC Fab VL A96S (Fab, V domains shown, Kabat numbering; source: Expi293F, co-transfected, purified (CaptureSelect CH1-XL)) VH: QVQLVQSGAEVKKPGSSVKVSCKASGGTFSSYAISWVRQAPGQGLEWMGGIIPIFGTANYAQKFQGRVTITADKSTSTAYMELSSLRSEDTAVYYCARHGNYYYYYGMDVWGQGTTVTVSS VL: SYVLTQPPAVSGTPGQRVTISCSGSDSNIGRRSVNWYQQFPGTAPKLLIYSNDQRPSVVPDRFSGSKSGTSASLAISGLQSEDEAEYYCAAWDDSLKGSVFGGGTQLTVL | 1.9 µM | 1.6 µM
CR9114 gHC Fab VL A96R (Fab, V domains shown, Kabat numbering; source: Expi293F, co-transfected, purified (CaptureSelect CH1-XL)) VH: QVQLVQSGAEVKKPGSSVKVSCKASGGTFSSYAISWVRQAPGQGLEWMGGIIPIFGTANYAQKFQGRVTITADKSTSTAYMELSSLRSEDTAVYYCARHGNYYYYYGMDVWGQGTTVTVSS VL: SYVLTQPPAVSGTPGQRVTISCSGSDSNIGRRSVNWYQQFPGTAPKLLIYSNDQRPSVVPDRFSGSKSGTSASLAISGLQSEDEAEYYCAAWDDSLKGRVFGGGTQLTVL | 13 µM | 21.5 µM
CR9114 gHC Fab VL W91F (Fab, V domains shown, Kabat numbering; source: Expi293F, co-transfected, purified (CaptureSelect CH1-XL)) VH: QVQLVQSGAEVKKPGSSVKVSCKASGGTFSSYAISWVRQAPGQGLEWMGGIIPIFGTANYAQKFQGRVTITADKSTSTAYMELSSLRSEDTAVYYCARHGNYYYYYGMDVWGQGTTVTVSS VL: SYVLTQPPAVSGTPGQRVTISCSGSDSNIGRRSVNWYQQFPGTAPKLLIYSNDQRPSVVPDRFSGSKSGTSASLAISGLQSEDEAEYYCAAFDDSLKGAVFGGGTQLTVL | 9.7 µM | 9.6 µM
CR9114 gHC Fab VL A96V (Fab, V domains shown, Kabat numbering; source: Expi293F, co-transfected, purified (CaptureSelect CH1-XL)) VH: QVQLVQSGAEVKKPGSSVKVSCKASGGTFSSYAISWVRQAPGQGLEWMGGIIPIFGTANYAQKFQGRVTITADKSTSTAYMELSSLRSEDTAVYYCARHGNYYYYYGMDVWGQGTTVTVSS VL: SYVLTQPPAVSGTPGQRVTISCSGSDSNIGRRSVNWYQQFPGTAPKLLIYSNDQRPSVVPDRFSGSKSGTSASLAISGLQSEDEAEYYCAAWDDSLKGVVFGGGTQLTVL | 3.8 µM | 15.8 µM
CR9114 gHC Fab VL W91Y (Fab, V domains shown, Kabat numbering; source: Expi293F, co-transfected, purified (CaptureSelect CH1-XL)) VH: QVQLVQSGAEVKKPGSSVKVSCKASGGTFSSYAISWVRQAPGQGLEWMGGIIPIFGTANYAQKFQGRVTITADKSTSTAYMELSSLRSEDTAVYYCARHGNYYYYYGMDVWGQGTTVTVSS VL: SYVLTQPPAVSGTPGQRVTISCSGSDSNIGRRSVNWYQQFPGTAPKLLIYSNDQRPSVVPDRFSGSKSGTSASLAISGLQSEDEAEYYCAAYDDSLKGAVFGGGTQLTVL | 45.7 µM | 27.2 µM
